# B1: His-tagged Cby wild type (natural protein, human, UniProt Q9Y3M2 1-126, looked up)
# chain: MPFFGNTFSPKKTPPRKSASLSNLHSLDRSTREVELGLEYGSPTMNLAGQSLKFENGQWIAETGVSGGVDRREVQRLRRRNQQLEEENNLLRLKVDILLDMLSESTAESHLMEKELDELRISRKRK
# notes: Chibby (Cby), human, 126 amino acids; Cby cDNA in pcDNA4/HisMax A; the vector pcDNA4/HisMax A probably adds further N-terminal residues besides the His tag (surmise); also called His-Cby; His-CbyWT; source: transiently transfected for cross-linking), purified (nickel beads / Ni-NTA)
# Molecular target: the molecule itself
# Test: SEC; His-Cby purified from stable HEK293T on Superdex 75 FPLC, 20 mM Tris-HCl pH 8.0, 1.0 M NaCl, 1 mM EDTA, 2 mM DTT, 2 mM betaine-HCl, 0.02% Triton X-100, 5% glycerol; fractions blotted with anti-Cby
protein,measurement,value
B1,stoichiometry N,2
